Two molecules from article PMC12407373, “Kindlin Regulates Mechanosensitive Activation and Adhesion Assembly of Integrin beta6” (Advanced Science, 2025) can be followed below.

For the assay, the target named is T1, full-length mouse kindlin2 (mouse, UniProt Q8CIB5 1-680).
T1 construct: full-length mouse kindlin2, cloned into pET28a with 10xHis-SUMO tag and HRV-3C site at the N-terminal; also called kindlin2 protein; source: Escherichia coli Rosetta(DE3), purified (IMAC, tag cleavage by HRV 3C, SEC); not shown: 10xHis, N-terminal, cleaved; SUMO, N-terminal, cleaved
T1 sequence (looked up): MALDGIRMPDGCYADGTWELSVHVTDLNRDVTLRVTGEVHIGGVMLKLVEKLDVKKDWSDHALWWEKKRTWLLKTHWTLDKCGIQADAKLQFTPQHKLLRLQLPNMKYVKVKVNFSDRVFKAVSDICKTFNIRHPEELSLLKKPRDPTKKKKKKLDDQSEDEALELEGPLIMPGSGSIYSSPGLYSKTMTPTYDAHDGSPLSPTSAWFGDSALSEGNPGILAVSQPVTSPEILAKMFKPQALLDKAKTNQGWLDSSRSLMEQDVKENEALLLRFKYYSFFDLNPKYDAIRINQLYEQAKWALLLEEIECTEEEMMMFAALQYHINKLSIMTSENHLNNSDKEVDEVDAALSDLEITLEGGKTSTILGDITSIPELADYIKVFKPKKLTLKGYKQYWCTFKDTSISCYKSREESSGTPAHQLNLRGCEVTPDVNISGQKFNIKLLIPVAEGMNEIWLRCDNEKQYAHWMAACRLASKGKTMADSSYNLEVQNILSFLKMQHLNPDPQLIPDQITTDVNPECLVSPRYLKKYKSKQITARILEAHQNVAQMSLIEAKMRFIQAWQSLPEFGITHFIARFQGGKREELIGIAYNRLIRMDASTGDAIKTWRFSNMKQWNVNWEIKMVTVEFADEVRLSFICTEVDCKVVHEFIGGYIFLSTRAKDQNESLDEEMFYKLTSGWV
The assay can be described thus: MST; Monolith NT.115; FITC-labeled tail peptide constant at 10 µM, kindlin2 titrated 42.5 to 0.0013 µM; 20 mM Tris pH 7.5, 200 mM sodium chloride, 1 mM TCEP, 5% glycerol; 10-20% LED power; Kd model. The note with it: both partners purified.

Usually Kd stands for the free concentration of one partner at which half of the binding sites on the other are occupied at equilibrium, for simple one-to-one binding. A high value points to weaker binding.

Where no end group is shown, it is not given here.

B1: FITC-labeled cytoplasmic tail of wildtype integrin β6 (peptide, UniProt P18564 731-788, looked up)
peptide: KLLVSFHDRKEVAKFEAERSKAKWQTGTNPLYRGSTSTFKNVTYKHREKQKVDLSTDC
modifications: also: FITC label, position not given here
notes: cytoplasmic tail of integrin β6; also called cytoplasmic tail of integrin β6; integrin β tail peptide; source: synthetic peptide, synthesized by Sangon Biotech
Molecule B1 registered a Kd of 26.6 µM.

B2: FITC-labeled cytoplasmic tail of wildtype integrin β1 (peptide, UniProt P05556 752-798, looked up)
peptide: KLLMIIHDRREFAKFEKEKMNAKWDTGENPIYKSAVTTVVNPKYEGK
modifications: also: FITC label, position not given here
notes: cytoplasmic tail of integrin β1; also called cytoplasmic tail of integrin β1; integrin β tail peptide; source: synthetic peptide, synthesized by Sangon Biotech
B2 displayed a Kd of 0.42 µM.
